According to patent US20250282870A1:
“And” between values parts separate entries of the source, which are not always exact repeats. Identical values can stand only once.

Columns and labels:
[1] = biological target: FcγRII (CD32) expressed on Raji cells; experiment: cell-based or functional assay
[2] = biological target: human CTLA4 expressed on Jurkat T cells (CTLA4 effector cells) (human) (UniProt P16410); experiment: cell-based or functional assay
human CTLA4 expressed on Jurkat T cells (CTLA4 effector cells) (human), sequence (P16410 36-223): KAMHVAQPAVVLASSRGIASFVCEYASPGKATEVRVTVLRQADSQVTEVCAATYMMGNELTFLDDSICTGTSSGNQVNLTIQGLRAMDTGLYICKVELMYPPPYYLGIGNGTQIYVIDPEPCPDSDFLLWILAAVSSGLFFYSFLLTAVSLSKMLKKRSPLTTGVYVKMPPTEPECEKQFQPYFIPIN

L3D10 (BioLegend anti-CTLA4 antibody), sequence (heavy): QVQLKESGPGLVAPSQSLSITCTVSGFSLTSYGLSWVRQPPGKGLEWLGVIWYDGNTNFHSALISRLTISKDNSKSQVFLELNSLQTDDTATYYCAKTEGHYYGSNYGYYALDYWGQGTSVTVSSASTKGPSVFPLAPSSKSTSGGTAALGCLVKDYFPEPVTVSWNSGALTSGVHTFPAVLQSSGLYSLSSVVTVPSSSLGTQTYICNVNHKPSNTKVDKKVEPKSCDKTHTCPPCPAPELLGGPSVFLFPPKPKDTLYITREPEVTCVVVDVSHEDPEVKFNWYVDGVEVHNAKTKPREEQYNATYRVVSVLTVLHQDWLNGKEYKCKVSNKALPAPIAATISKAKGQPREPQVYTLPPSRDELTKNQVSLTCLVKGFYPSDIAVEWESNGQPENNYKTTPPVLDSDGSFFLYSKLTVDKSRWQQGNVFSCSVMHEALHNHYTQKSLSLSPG
L3D10 (BioLegend anti-CTLA4 antibody), sequence (light): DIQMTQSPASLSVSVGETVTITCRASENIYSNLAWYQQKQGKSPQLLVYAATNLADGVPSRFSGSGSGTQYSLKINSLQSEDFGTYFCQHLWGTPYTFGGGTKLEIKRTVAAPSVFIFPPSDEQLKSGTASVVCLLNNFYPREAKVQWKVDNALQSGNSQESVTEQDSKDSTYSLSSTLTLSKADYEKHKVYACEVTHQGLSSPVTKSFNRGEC

Row | RLU ratio of the CTLA4 blockade assay with anti-CD32 antibody at 10 µg per ml [1] | RLU ratio, Promega CTLA4 Blockade Bioassay (luciferase readout) [2] | half max activity concentration, CTLA4 Blockade Bioassay (luciferase or IL-2 readout) [2] | activity in the CTLA4 blockade assay with anti-CD32 antibody [1] | Substance
1 | 50% | 10 and 15 | 50 nM |  | L3D10 (BioLegend anti-CTLA4 antibody)
2 | 50% |  |  | 50% | ipilimumab (Selleckchem, Cat. No. A2001) (antibody)
